Each sequence was assayed on K4 kissing-loop RNA reporter (assay: apparent KD of K4 kissing-loop reporter; higher = weaker reporter binding). Conditions: Eterna round: R107; input ligand: arginine 13.2 mM.
Protocol: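 RNA-MaP round R107: designed RNA switches with theophylline, tryptophan, arginine or FMN aptamers are transcribed on-chip within common flanks. They are titrated with a labelled K4 kissing-loop RNA reporter in RNA-MaP buffer (100 mM Tris pH 7.5, 80 mM KCl, 4 mM MgCl2), without ligand or with the indicated ligand. Median apparent KD per design.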
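Further: bound reporter read as fluorescence of individual clusters on recovered sequencing chips by microscopy, with normalized cluster intensities fitted with a binding model.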

Sequence	apparent KD of K4 kissing-loop reporter [nM]
UGAUACCAGACUGAUACCAGCCACAGAGUCAAAGACUCUGAUAAAGGUACCAGUGAUGUUGGCCCUUGGCAGCAGUCUGGUAUCU [TheoBX 17 #SwitchBubble #StaticStem]	126
UAACUUGCAGUGAUGUUGCAAGAACUGGAUACCAGCAUGGAAACAUGCCCUUGGCAGCCAGAAGGUAUCCUACAUCACAGAUACU [Design2]	202
GAUAUAUAGACGGCCGCCACUUAUAAAUUUCAGUGAUGUUGAAAUGUUAAAUAACGAACACAAUAGAGGACCGGGUCAAAUAUCG [Same State Tryptophan B GF 2]	161
AGGAUCCACCAGUGAUGUUGGAAAUACAUCAAGGAUAUGACGAAAGUCAGAAGGUGGUAGACUGGACAAAGUCCAGUUGGAUCCA [KL-SSFMN-A18]	54.9
GUACACUCUCGAGUGAUGUUCGGUAAUAGAGAGGAUAUCGCUUUUGCGAGAAGGCUCUGAAUGAGGAAACUCGUUCUGUGUGUAC [FMN A 20]	686
GCGCGUCAUGUCAGCGGUGACUACGUCGAUACCAGCAGGGAAACCUGCCCUUGGCAGCGACGCGCUGGAGUGAUGUUCCGACGGC [#2 Exclusion - Theophylline A Attempt #7 (HarryS)]	176

Same assay, conditions: Eterna round: R107; input ligand: none

Sequence	apparent KD of K4 kissing-loop reporter [nM]
GGGCGUGGCGCGGCCGCCACUGGGCCUGGGUGCUCGCUGAGUGAUGUUCGUCGGCGGUUGGGUCGUAGGACCGGGUGCUGGUUGG [BDazzled - #9 SS Tryptophan B]	607
AUAAACUUGCAGUGAUGUUGCAAGUAAGACUAGGAUAUCAGGAAACUGAGAAGGAGUCAUCUCCUUCAACUGCAAGAAUGAAGGA [[K1]-[K2]-[F1]-[F2]-[F]'-[K]'-[F]''_Design4]	129
UUAGAUGAUUCAUCAAGAUUGAUGAGGAAACGAGGACCGGUACGGCCGCCACUCGAGUGAUGUUCGAGAACCUCAUCAAUCAAUU [AK4.4 Exc Tryptophan A]	154
CCUAUCUCAUACGAUACCAGUCAAUGAUCUUUGAUCAAUGCCAUCACCGAGUGAUGUUCGGACCCUUGGCAGCGUAUGGGAUAGG [whbob_Ex_Theo_B_sa102]	269
UGUCAUGGAAACAUGAACGUUGAAAUAAGACGAGGACCGGUACGGCCGCCACUCGAAUAAUGGUCAGUGAUGUUGACUGGAAUAA [KL-SSTryp-A form1 sub7 #dotplot2>1]	70.3
AGAUAGGGCUGAAGGAGCGUCGGAGAAGAGAAGAAGAAAUCCAGUGAUGUUGGAUAAAUCCGACAGGUAGGUCGCAGUUUUAUGA [hbob_SS_Arginine_B_2t137]	115
AGUGAUGUGGGAAGGAGCGGUAUAUGAGUUCAGUGAUGUUGAAGUGAUGCUGUAGUGUUGUGCCAGGUAGGUCGCCUAGAUGUUA [KL-XARG B25]	316
UAAGAUUCUGUCUCAUUGAGACAGAAUCAACGAGGACCGGUACGGCCGCCACUCGGGUCCUAGAGUGAUGUUCUAAUAAUAUAAU [AK1 SS Tryptophan A]	296
ACGACUGGAUGAAUAACAUCUAGUCGAGAUCGAGGACCGGUACGGCCGCCACUCGAGCUAACUGCGAGUGAUGUUCGAUAAUAAA [#OpenEnded 2]	253
AGGAGCGUGGGAUGUAAAUCGCACGCUCCUCGAGGACCGGUACGGCCGCCACUCGCUCGCGCCGAGUGAUGUUCGGCCGGCGAAC [#2 Same State - Tryptophan A Attempt #13 (HarryS)]	225
UGACUGGACUGAAGGAGCGUGGAAGGAGCGUAAGUAGUGAUGUUGCUUACAGGUAGGUCGCCGCAGGUAGGUCGCAGUCUAGUCU	56.5
AGUGAUGUUGAGUUAUGUUAGUGAAGUGAUCGAGGACCGGUACGGCCGCCACUCGAGUGAUGAGUGAGUGAUGUUUGUUUAGUGA [bvbmullin]	857
UGACUGGAUGGAAGGAGCGCUAAACUCCUAGUGAUGUUAGGGACACGAGACAAAGUCUUGAAGCAGGUAGGUCGCCAUCUAGUCU [FiskerMod 9 - Jieux - Same State - Arginine B]	229
UCCUAGGCUCGAAAGAGCCUAGGAUUUACUCAGGAUAUCCGGAAACGGAGAAGGGAGUGACUAGUGAUGUUAGGGACUCCCUAUU	87.9
UAAUAAUAAUGAUAAUAAUCAAGUGGUGGACGAGGACCGGUACGGCCGCCACUCGAAAAUGCAGUGAUGUUGUAAUACGGAUAAU [Exclusion - Tryptophan A (Freestyle 2)]	133
AGCGACUCGAAAGGGUCGCGGCUAAGGGAUACCAGUGAUGUUGGUCACCCUUGGCAGCCCAGAAGCCAAGCCACCAAAGGUGGCA [Omei KL Theo A Exc A v10]	119
AGGUGAGAGUGAAGGAGCGAUCGCGCCAGUGAUGUUGGUGAGCAUGACGAAAGUCAUGCCGAUCAGGUAGGUCGCACUCUUACUC [Omei KL Arginine B SS B v3]	663
ACGAAAUGCGACUCCUAGUUACACCGGGAAGGAGCGCGGAUAACCGCAGGUAGGUCGCCCGGAAGCCGGACCAGUGAUGUUGGUC [Exclusion Arginine A Gf 27]	182
UGUAUGGACUGAAGGAGCGCUAGGAGUGUGAGUGAUGUUCAUACAAAUGUAUAGAUGGUCUGGCAGGUAGGUCGCAGUCCAUACU [KL-SSArg B4]	203
CCCAAGGGCCUACCGGUAUGAUGGACGGAUACCAGAGGCGAAAGCCUCCCUUGGCAGCCGGGUGUAGUGAUGUUACUCCGGUAGU	75
GCGGGCCAGACGGCCGCCACUCCGGGCAGUGAUGUUGCGAAACUUCUACUAGAGUGAUGUUCUACGAGGACCGGGUCGGAACGCG [Exclusion Tryptophan B Gf 13]	951
